Measurements taken from US6137031, “DNA binding proteins that interact with NPR1” (Duke University, dated 2000).

B1: AHBP-1b (full-length, two-hybrid prey in pJG4-5) (other)
chain: MADTSPRTDVSTDDDTDHPDLGSEGALVNTAASDSSDRSKGKMDQKTLRRLAQNREAARKSRLRKKAYVQQLENSRLKLTQLEQELQRARQQGVFISGTGDQAHSTGGNGALAFDAEHSRWLEEKNKQMNELRSALNAHAGDSELRIIVDGVMAHYEELFRIKSNAAKNDVFHLLSGMWKTPAERCFLWLGGFRSSELLKLLANQLEPMTERQLMGINNLQQTSQQAEDALSQGMESLQQSLADTLSSGTLGSSSSGNVASYMGQMAMAMGKLGTLEGFIRQADNLRLQTLQQMIRVLTTRQSARALLAIHDYFSRLRALSSLWLARPRE
B2: NPR1 1-177 (pEGNPR11-177) (other)
chain: MDTTIDGFADSYEISSTSFVATDNTDSSIVYLAAEQVLTGPDVSALQLLSNSFESVFDSPDDFYSDAKLVLSDGREVSFHRCVLSARSSFFKSALAAAKKEKDSNNTAAVKLELKEIAKDYEVGFDSVVTVLAYVYSSRVRPPPKGVSECADENCCHVACRPAVDFMLEVLYLAFIF
B3: TGA6 (full-length, two-hybrid prey in pJG4-5) (other)
chain: MADTSSRTDVSTDGDTDHRDLGSDRGHMHAAASDSSDRSKDKLDQKTLRRLAQNREAARKSRLRKKAYVQQLENSRLKLTQLEQELQRARQQGVFISSSGDQAHSTGGNGALAFDAEHSRWLEEKNRQMNELRSALNAHAGDTELRIIVDGVMAHYEELFRIKSNAAKNDVFHLLSGMWKTPAERCFLWLGGFRSSELLKLLANQLEPMTERQVMGINSLQQTSQQAEDALSQGMESLQQSLADTLSSGTLGSSSSDNVASYMGQMAMAMGQLGTLEGFIRQADNLRLQTLQQMLRVLTTRQSARALLAIHDYSSRLRALSSLWLARPRE

What was measured:
[1] = biological target: full-length A. thaliana NPR1 (two-hybrid bait in pEG202) (Arabidopsis thaliana) (UniProt P93002); assay: yeast two-hybrid, β-galactosidase reporter
[2] = biological target: full-length tomato NPR1 homolog (tomato); assay: yeast two-hybrid, β-galactosidase reporter
[3] = biological target: NPR1 1-432 (pEGNPR11-432) (Arabidopsis thaliana) (UniProt P93002); assay: yeast two-hybrid, β-galactosidase reporter
[4] = biological target: NPR1 178-593 (pEGNPR1178-593) (Arabidopsis thaliana) (UniProt P93002); assay: yeast two-hybrid, β-galactosidase reporter
npr1-1 mutant NPR1 bait = npr1-1 mutant NPR1 bait (Arabidopsis thaliana, UniProt P93002); assay: yeast two-hybrid, β-galactosidase activity
npr1-2 mutant NPR1 bait = npr1-2 mutant NPR1 bait (Arabidopsis thaliana, UniProt P93002); assay: yeast two-hybrid, β-galactosidase activity
[5] = biological target: B1; assay: yeast two-hybrid, β-galactosidase activity

Row | units of β-galactosidase activity [1] | binding result (npr1-1 mutant NPR1 bait) | binding result (npr1-2 mutant NPR1 bait) | other results | Molecule
1 | 7.6 units |  |  |  | OBF5 (full-length, two-hybrid prey in pJG4-5) (from UniProt Q39163)
2 |  |  |  | units of β-galactosidase activity [2]: 1290 units | NIF1 (NPR-1-Interacting Factor 1)
3 | 673 units | no binding | no binding | units of β-galactosidase activity [3]: 522 units; units of β-galactosidase activity [4]: 17.6 units | B1
4 |  |  |  | binding result [5]: no binding | B2
5 | 372 units | no binding | no binding |  | B3
